B1: Hairpin Ribozyme (parent)
chain: GUCCUCUUUCACGUGCGCGUGAAAGAGAGAAGUGAACCAGAGAAACACACGUUGUGGUAUAUUACCUGGUA

The variants in the series derive from B1. Nature of the series: self-cleavage, relative activity (ratio to wild type); higher = more cleavage; co-transcriptional.
On to GUCCUCUUUCACGUGCGCGUGAAAGAGAGAAGGGAACCAGAGAAACACACGUUGUGGUAUAUUACCUCGUA [U33G G68C], for which the self-cleavage amounted to 0.0688.
As to GUCCUCUUUCACGUGGGCGUGAAAGAGAGAAGUGAACAAGAGAAACACACGUUGUGGUAUAUUACCUGGUA [C16G C38A], the self-cleavage was 0.154.
For GUCCUCUUUCACGUGCGCGUGAAAGAGAGAAGUGAAGCGGAGAAACACACGUUGUGGUAUAUUACCUGGUA [C37G A39G], the self-cleavage was determined as 0.328.
To GUCCUCUUUCACGUGCGCGUGAAAGAGAGAAGUCAACCAGAGAAACACACGUUGUGGUAUAUUACCUGGAA [G34C U70A] belongs 1.12; to GUCCUCUUUCACGUGCGCGUGAAAGAGAGAAGUGAACCAUAGAAACACACGUUUUGGUAUAUUACCUGGUA [G40U G54U], 0.096; to GUCCUCUUUCACGUGCGCGUGAAAGAGAGAAGUUAACCAGAGAAACACACGUUGUGGUAUAUUACCUGGCA [G34U U70C], 1.43.
As to GUCCUCUUUCACGGGUGCGUGAAAGAGAGAAGUGAACCAGAGAAACACACGUUGUGGUAUAUUACCUGGUA [U14G C16U], the self-cleavage came out at 1.06.
With GUCCUCUUCCACGUGCGCGUGAAAGGGAGAAGUGAACCAGAGAAACACACGUUGUGGUAUAUUACCUGGUA [U9C A26G], the self-cleavage came to 0.747.
On to GUCCUCUUUCACGUGGGCGUGAAAGAGAGAAGUGAACCAGAGACACACACGUUGUGGUAUAUUACCUGGUA [C16G A44C], for which the self-cleavage was 0.0851.
Take GUCCUCUUUCACGUGCCCGUGAAAGAGAGAAGUGAACCAUAGAAACACACGUUGUGGUAUAUUACCUGGUA [G17C G40U]: the self-cleavage worked out at 0.144.
Under GUCCUCUUUCACGUGCGCGUGAAAGAGAGAAGUGAACCAGAGAAACACACGUUGUGGUAUAGUACCUGGUU [U62G A71U] stands 0.367.
To GUCCUAUUUCACGUGCGCGUGAAAGAGAGAAGUGAACCAGAGAAACACACGGUGUGGUAUAUUACCUGGUA [C6A U52G] belongs 0.547; to GUACUCUUUCACGUGCGCGUGAAAGAGAGUAGUGAACCAGAGAAACACACGUUGUGGUAUAUUACCUGGUA [C3A A30U], 0.16.
Turning to GUCCUCUUUAACGUGCGCGUGAAAGAGAGAAGUGAACCAGAGAAACACACGUUAUGGUAUAUUACCUGGUA [C10A G54A], the self-cleavage amounted to 0.338.
GUCCUCUUUCACGCGCCCGUGAAAGAGAGAAGUGAACCAGAGAAACACACGUUGUGGUAUAUUACCUGGUA [U14C G17C]: the self-cleavage was 0.582.
Regarding GUCCUCUUUCACGUGCGCGUGAGAGAGAAAAGUGAACCAGAGAAACACACGUUGUGGUAUAUUACCUGGUA [A23G G29A], the self-cleavage came to 0.0583.
Regarding GUCGUCUUUCACGUGCGCGUUAAAGAGAGAAGUGAACCAGAGAAACACACGUUGUGGUAUAUUACCUGGUA [C4G G21U], the self-cleavage stood at 0.123.
As for CUCCUCUUUCACGUGCGCGUGAAAGAGAGAUGUGAACCAGAGAAACACACGUUGUGGUAUAUUACCUGGUA [G1C A31U], the self-cleavage was determined as 0.163.
With GUCCUCUUUCACGUGCGCGUGGAAGAGACAAGUGAACCAGAGAAACACACGUUGUGGUAUAUUACCUGGUA [A22G G29C], the self-cleavage was 0.129.
On to GUCCUCUUUCACGUGCUCGUGAAAGAGAGAAGUCAACCAGAGAAACACACGUUGUGGUAUAUUACCUGGUA [G17U G34C], for which the self-cleavage came out at 1.5.
GUCCUGUUUCACGUGCGCGUGAAAGAGGGAAGUGAACCAGAGAAACACACGUUGUGGUAUAUUACCUGGUA [C6G A28G]: the self-cleavage came out at 0.605.
For the variant GUCCUCUUUCACGUGCGCGAGAAAGAGAGAAGUGAACCAGAGAAACACACGUUGUCGUAUAUUACCUGGUA [U20A G56C], the self-cleavage stood at 0.145.
Turning to GUCCUCUUUCACGUGCGCGUGAAAGAGAGAAGUGGACCAGAGAAACAGACGUUGUGGUAUAUUACCUGGUA [A35G C48G], the self-cleavage is 0.213.
To GUCCUCUUUCACGUGCGCGUGAAAGGGAGAAGUGAACCAGAGAAGCACACGUUGUGGUAUAUUACCUGGUA [A26G A45G] belongs 0.132; to GUCCUGUUUCACGUGCGCGUGAAAGAGAGAAGUGAACCAGAGAAACACACGGUGUGGUAUAUUACCUGGUA [C6G U52G], 0.583.
Under GUCCUCUUUCUCGUGCGCGUGAAAGAGAGAAGUGAACCAGAGAAACACACGUUGGGGUAUAUUACCUGGUA [A11U U55G] stands 0.339; under GUCCUCUUUCACGAGCGCGUGAAAGAGAGAAGUGAACCAGAGCAACACACGUUGUGGUAUAUUACCUGGUA [U14A A43C], 0.15; under GUCCUCUUUCACGUGCGCGUGAAAGAGAGAAGUGAACCAGAGAAACAUACGUUGUGGGAUAUUACCUGGUA [C48U U58G], 0.152.
To GUCCUCUUUCACGUGCGCGUGAAACAGAGAAGUGAACCAGAGAAACACAGGUUGUGGUAUAUUACCUGGUA [G25C C50G] belongs 0.178; to GUCCUCUUUCACGUGCGCGUGAAAGAGAGAAGUGAACCAGAUAAACACACCUUGUGGUAUAUUACCUGGUA [G42U G51C], 0.392; to GUCCUCUUUCACGUGCGCAUGAAAGAGAGAAGUGAACCAGAGAAACACACGUUGUGGUACAUUACCUGGUA [G19A U60C], 1.05.
As to GUCCUCUUUCACGUGCGCGUGAAAGAGAGAAGUGAACCAGAGAAACACAUGUUGUGGUAUAUUACCUGAUA [C50U G69A], the self-cleavage turned out to be 0.112.
Consider GUCCUUUUUCACGUGCGCGUGAAAGAGAGAAGUGAACCAGAAAAACACACGUUGUGGUAUAUUACCUGGUA [C6U G42A], for which the self-cleavage is 0.275.
Consider GUUCUCUUACACGUGCGCGUGAAAGAGAGAAGUGAACCAGAGAAACACACGUUGUGGUAUAUUACCUGGUA [C3U U9A], for which the self-cleavage was found to be 0.299.
Under GUCCUCUUUCAGGUGCGCGUGAAAGAGAGAAGUGAUCCAGAGAAACACACGUUGUGGUAUAUUACCUGGUA [C12G A36U] stands 0.517; under GUCCUCUUUCACGUGCGCGUGAAAGAGAGUAGUGAACCAGAGAAACACACGGUGUGGUAUAUUACCUGGUA [A30U U52G], 0.0874; under GUGCUCUUUCACGUGCGCGUAAAAGAGAGAAGUGAACCAGAGAAACACACGUUGUGGUAUAUUACCUGGUA [C3G G21A], 0.173.
In the case of GUCCUCUUUCACGUGCGCGUGAAAGACAGAAGUGAACCAGAGAAACACACGAUGUGGUAUAUUACCUGGUA [G27C U52A], the self-cleavage came out at 0.167.
